The target of assay [1] is T1, neuropeptide Y2 receptor, P49146.
T1 chain: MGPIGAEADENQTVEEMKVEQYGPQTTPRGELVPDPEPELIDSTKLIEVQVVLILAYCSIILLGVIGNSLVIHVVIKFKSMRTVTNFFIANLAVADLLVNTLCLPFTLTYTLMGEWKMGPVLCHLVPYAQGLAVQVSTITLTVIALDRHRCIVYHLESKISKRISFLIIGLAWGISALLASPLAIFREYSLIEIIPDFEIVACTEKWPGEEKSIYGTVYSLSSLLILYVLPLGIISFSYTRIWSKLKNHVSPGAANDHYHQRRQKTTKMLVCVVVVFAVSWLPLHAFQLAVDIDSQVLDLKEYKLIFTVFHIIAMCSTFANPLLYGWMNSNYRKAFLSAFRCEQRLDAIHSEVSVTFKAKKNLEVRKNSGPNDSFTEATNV
Put plainly: displacement of [125I]-human PYY, SK-N-BE membranes. For orientation: In a radioligand displacement assay an active substance lowers the binding of a labelled ligand.

For assay [2], the target named is neuropeptide Y4 receptor. Kind of assay: displacement of [125I]-human PP, Y4-transfected CHO-K1 membranes.
Sequence of neuropeptide Y4 receptor (P50391 whole entry): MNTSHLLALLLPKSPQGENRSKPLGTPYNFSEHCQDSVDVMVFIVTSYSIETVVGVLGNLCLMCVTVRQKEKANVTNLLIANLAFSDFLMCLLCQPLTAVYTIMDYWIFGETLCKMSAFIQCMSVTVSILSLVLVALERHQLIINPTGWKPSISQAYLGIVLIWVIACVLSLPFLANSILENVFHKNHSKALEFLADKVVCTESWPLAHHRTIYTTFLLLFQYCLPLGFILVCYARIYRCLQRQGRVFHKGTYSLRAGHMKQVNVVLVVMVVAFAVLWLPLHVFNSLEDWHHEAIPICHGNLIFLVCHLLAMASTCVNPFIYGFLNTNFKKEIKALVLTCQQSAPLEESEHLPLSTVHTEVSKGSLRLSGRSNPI
Assay [3] addresses T2, neuropeptide Y1 receptor, P25929.
T2 chain: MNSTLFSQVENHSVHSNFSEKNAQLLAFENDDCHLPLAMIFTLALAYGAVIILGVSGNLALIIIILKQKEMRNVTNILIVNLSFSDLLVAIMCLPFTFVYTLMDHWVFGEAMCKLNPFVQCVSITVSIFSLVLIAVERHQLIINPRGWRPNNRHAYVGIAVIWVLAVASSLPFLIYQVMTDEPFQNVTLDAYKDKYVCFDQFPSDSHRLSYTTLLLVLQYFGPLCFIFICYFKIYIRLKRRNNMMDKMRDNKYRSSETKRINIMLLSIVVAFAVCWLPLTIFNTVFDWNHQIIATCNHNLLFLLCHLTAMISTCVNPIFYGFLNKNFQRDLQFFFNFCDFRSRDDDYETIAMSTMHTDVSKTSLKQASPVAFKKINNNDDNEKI
Put plainly: displacement of [125I]-human PYY, SK-N-MC membranes.

Assay [4] has as its target neuropeptide Y5 receptor. Put plainly: displacement of [125I]-human PYY, Y5-transfected CHO-K1 membranes.

The results in this text go back to patent publication US20100099619A1.

As to IAPEAPGEDASPEELAQYAADLRRYINMLTRQRY (modifications not checked) [SEQ ID NO: 477], in assay [1], the Y2RBA was found to be 4.4 nM. In addition, in assay [2], the Y4 RBA came out at 164 nM. In assay [3], this molecule yielded a Y1RBA of 265 nM. This molecule also returned a Y5RBA in assay [4] of 18 nM.
YPIAPEAPGEDASPEELAQYAADLRRYINMLTRQRY (modifications not checked) [SEQ ID NO: 476]: the Y2RBA in assay [1] came out at 7.4 nM. This molecule showed a Y4 RBA in assay [2] of 53 nM. The same molecule returned a Y1RBA in assay [3] of 27 nM. In assay [4], this molecule registered a Y5RBA of 15 nM.
